Test results reported in the supplement of paper PMC9112550, “Optimization of the antimicrobial peptide Bac7 by deep mutational scanning” (BMC Biology, 2022).
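Note: peptides expressed intracellularly from a pBAD plasmid library in pooled LB shake-flask culture, induced with 0.3% L-arabinose, DNA abundance read by NGS, three biological replicates, DESeq2 with apeglm shrinkage.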

Each sequence was assayed on Escherichia coli TOP10 (assay: shrunken log2 fold change of peptide-encoding DNA abundance (4.5 h post-induction vs induction); higher = less antimicrobial activity (less host growth inhibition)). Conditions: time post-induction: 4.5 h; library: site-saturation at positions 5, 18, 19, 20.
For RRIRGRPPRLPRPRPRPTEWPRP, the “shrunken log2 fold change” value was 1.23. In the case of RRIRIRPPRLPRPRPRPVFPPRP, the “shrunken log2 fold change” value is reported as -0.221. With RRIRFRPPRLPRPRPRPKDFPRP the “shrunken log2 fold change” value was -0.158. In the case of RRIRIRPPRLPRPRPRPWPTPRP, the “shrunken log2 fold change” value is reported as 0.331. With RRIRMRPPRLPRPRPRPELEPRP the “shrunken log2 fold change” value was 4.13. RRIRHRPPRLPRPRPRPCMGPRP was tested, and the “shrunken log2 fold change” value was -0.194. For RRIRSRPPRLPRPRPRPDRLPRP, the “shrunken log2 fold change” value was -0.168. For RRIRRRPPRLPRPRPRPSHMPRP, the “shrunken log2 fold change” value was 0.157. RRIRYRPPRLPRPRPRPVIWPRP was tested, and the “shrunken log2 fold change” value was -0.262. For RRIRVRPPRLPRPRPRPWKNPRP, the “shrunken log2 fold change” value was 0.0224. RRIRERPPRLPRPRPRPWIHPRP was tested, and the “shrunken log2 fold change” value was 0.105. With RRIRARPPRLPRPRPRPGKYPRP the “shrunken log2 fold change” value was -0.152. With RRIRFRPPRLPRPRPRPFIPPRP the “shrunken log2 fold change” value was -0.823. RRIRTRPPRLPRPRPRPMFVPRP was tested, and the “shrunken log2 fold change” value was -0.215. For RRIRHRPPRLPRPRPRPGYFPRP, the “shrunken log2 fold change” value was -0.0725. In the case of RRIRSRPPRLPRPRPRPERQPRP, the “shrunken log2 fold change” value is reported as 0.1. For RRIRRRPPRLPRPRPRPSNWPRP, the “shrunken log2 fold change” value was -0.192. With RRIRHRPPRLPRPRPRPCHDPRP the “shrunken log2 fold change” value was 0.0948. RRIRHRPPRLPRPRPRPAGHPRP was tested, and the “shrunken log2 fold change” value was -0.0991. In the case of RRIRTRPPRLPRPRPRPIKRPRP, the “shrunken log2 fold change” value is reported as -0.0164. For RRIRPRPPRLPRPRPRPLGWPRP, the “shrunken log2 fold change” value was 0.442. RRIRFRPPRLPRPRPRPREMPRP was tested, and the “shrunken log2 fold change” value was 0.286. RRIRMRPPRLPRPRPRPMPAPRP was tested, and the “shrunken log2 fold change” value was 1.07. In the case of RRIRLRPPRLPRPRPRPGIFPRP, the “shrunken log2 fold change” value is reported as -0.313. In the case of RRIRLRPPRLPRPRPRPPSTPRP, the “shrunken log2 fold change” value is reported as 0.00129. RRIRPRPPRLPRPRPRPAGVPRP was tested, and the “shrunken log2 fold change” value was 0.392. In the case of RRIRDRPPRLPRPRPRPEHRPRP, the “shrunken log2 fold change” value is reported as -0.01. In the case of RRIRQRPPRLPRPRPRPSLPPRP, the “shrunken log2 fold change” value is reported as 0.289. In the case of RRIRLRPPRLPRPRPRPYPIPRP, the “shrunken log2 fold change” value is reported as 0.107. RRIRVRPPRLPRPRPRPMRWPRP was tested, and the “shrunken log2 fold change” value was 0.0506. With RRIRQRPPRLPRPRPRPDVVPRP the “shrunken log2 fold change” value was -0.01. In the case of RRIRQRPPRLPRPRPRPQSKPRP, the “shrunken log2 fold change” value is reported as -0.574. With RRIRPRPPRLPRPRPRPSKTPRP the “shrunken log2 fold change” value was 0.0619. In the case of RRIRERPPRLPRPRPRPYHSPRP, the “shrunken log2 fold change” value is reported as -0.133. For RRIRKRPPRLPRPRPRPSAYPRP, the “shrunken log2 fold change” value was -0.277. In the case of RRIRLRPPRLPRPRPRPYFRPRP, the “shrunken log2 fold change” value is reported as -0.78. With RRIRCRPPRLPRPRPRPWKAPRP the “shrunken log2 fold change” value was 0.0231. For RRIRFRPPRLPRPRPRPEYQPRP, the “shrunken log2 fold change” value was -0.0212. For RRIRTRPPRLPRPRPRPRLAPRP, the “shrunken log2 fold change” value was 0.453. For RRIRHRPPRLPRPRPRPAKKPRP, the “shrunken log2 fold change” value was 0.0694. RRIRYRPPRLPRPRPRPVVIPRP was tested, and the “shrunken log2 fold change” value was -0.868. In the case of RRIRGRPPRLPRPRPRPPQHPRP, the “shrunken log2 fold change” value is reported as 0.789. RRIRRRPPRLPRPRPRPKKEPRP was tested, and the “shrunken log2 fold change” value was -0.0417. For RRIRRRPPRLPRPRPRPDCCPRP, the “shrunken log2 fold change” value was 0.168. RRIRYRPPRLPRPRPRPNYKPRP was tested, and the “shrunken log2 fold change” value was -1.01. In the case of RRIRLRPPRLPRPRPRPTCPPRP, the “shrunken log2 fold change” value is reported as 0.0694. With RRIRVRPPRLPRPRPRPSDNPRP the “shrunken log2 fold change” value was -0.878. In the case of RRIRYRPPRLPRPRPRPEPKPRP, the “shrunken log2 fold change” value is reported as 0.0661. For RRIRPRPPRLPRPRPRPPREPRP, the “shrunken log2 fold change” value was 0.678. In the case of RRIRRRPPRLPRPRPRPPHNPRP, the “shrunken log2 fold change” value is reported as 1.21. In the case of RRIRNRPPRLPRPRPRPGKAPRP, the “shrunken log2 fold change” value is reported as -0.181. For RRIRTRPPRLPRPRPRPPCRPRP, the “shrunken log2 fold change” value was 0.121. RRIRSRPPRLPRPRPRPNCGPRP was tested, and the “shrunken log2 fold change” value was -0.146. For RRIRVRPPRLPRPRPRPCHIPRP, the “shrunken log2 fold change” value was -0.312. For RRIRDRPPRLPRPRPRPDPVPRP, the “shrunken log2 fold change” value was 0.203. For RRIRDRPPRLPRPRPRPKKVPRP, the “shrunken log2 fold change” value was 0.241. RRIRVRPPRLPRPRPRPVPHPRP was tested, and the “shrunken log2 fold change” value was 0.135. In the case of RRIRWRPPRLPRPRPRPIYSPRP, the “shrunken log2 fold change” value is reported as -0.0292. RRIRTRPPRLPRPRPRPNSSPRP was tested, and the “shrunken log2 fold change” value was -0.13. RRIRNRPPRLPRPRPRPHRMPRP was tested, and the “shrunken log2 fold change” value was -0.0233. For RRIRFRPPRLPRPRPRPDAHPRP, the “shrunken log2 fold change” value was -0.0702. RRIRDRPPRLPRPRPRPYNNPRP was tested, and the “shrunken log2 fold change” value was -0.489. In the case of RRIRCRPPRLPRPRPRPGQVPRP, the “shrunken log2 fold change” value is reported as 0.0846. RRIRPRPPRLPRPRPRPACYPRP was tested, and the “shrunken log2 fold change” value was -0.199. With RRIRTRPPRLPRPRPRPWQAPRP the “shrunken log2 fold change” value was 0.177. For RRIRQRPPRLPRPRPRPQTEPRP, the “shrunken log2 fold change” value was -0.128. With RRIRVRPPRLPRPRPRPIGTPRP the “shrunken log2 fold change” value was -0.0334. For RRIRHRPPRLPRPRPRPLGIPRP, the “shrunken log2 fold change” value was -0.148. For RRIRTRPPRLPRPRPRPFTGPRP, the “shrunken log2 fold change” value was -0.12. In the case of RRIRARPPRLPRPRPRPEVCPRP, the “shrunken log2 fold change” value is reported as 1.25. With RRIRQRPPRLPRPRPRPQFAPRP the “shrunken log2 fold change” value was -0.00983. For RRIRSRPPRLPRPRPRPQCDPRP, the “shrunken log2 fold change” value was -0.193. RRIRHRPPRLPRPRPRPYPQPRP was tested, and the “shrunken log2 fold change” value was -0.546. For RRIRWRPPRLPRPRPRPKLLPRP, the “shrunken log2 fold change” value was 0.336. RRIRQRPPRLPRPRPRPLVVPRP was tested, and the “shrunken log2 fold change” value was 0.0686.
